Tests used:
[1] = molecular target: CD40 on the surface of Ramos cells (human, UniProt P25942 21-277); experiment: cell-based or functional assay
[2] = molecular target: CD33 on the surface of HL-60 cells (human, UniProt P20138 18-364); experiment: cell-based or functional assay
[3] = molecular target: T1, human OX40 on the cell surface (JD/OX40 cells; OX40-expressing T cells) (human, UniProt P43489 29-277); experiment: cell-based or functional assay
T1 sequence: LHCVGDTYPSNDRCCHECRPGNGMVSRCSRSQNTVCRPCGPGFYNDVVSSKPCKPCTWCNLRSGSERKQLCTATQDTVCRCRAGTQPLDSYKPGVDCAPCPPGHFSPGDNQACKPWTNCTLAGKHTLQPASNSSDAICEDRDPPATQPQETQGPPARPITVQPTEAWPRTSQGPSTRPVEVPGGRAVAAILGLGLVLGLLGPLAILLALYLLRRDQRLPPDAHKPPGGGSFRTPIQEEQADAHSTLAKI

[4] = molecular target: recombinant human CD33 on the surface of NS0/CD33 cells (CD33-FLAG-GPI) (human); experiment: cell-based or functional assay
Sequence of recombinant human CD33 on the surface of NS0/CD33 cells (CD33-FLAG-GPI) (human) (chain, as listed by the source limits assumed): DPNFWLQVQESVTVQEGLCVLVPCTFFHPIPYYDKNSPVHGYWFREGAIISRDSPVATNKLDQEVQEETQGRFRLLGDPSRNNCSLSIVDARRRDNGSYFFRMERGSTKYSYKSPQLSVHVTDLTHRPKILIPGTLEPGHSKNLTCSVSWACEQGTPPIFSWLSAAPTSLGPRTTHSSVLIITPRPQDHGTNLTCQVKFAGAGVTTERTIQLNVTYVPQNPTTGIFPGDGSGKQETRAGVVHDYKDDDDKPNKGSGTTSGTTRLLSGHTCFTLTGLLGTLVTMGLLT

[5] = molecular target: T1, human OX40 on the cell surface (JD/OX40 …); experiment: flow cytometry on JD/OX40 cells
human PD-L1 = molecular target: T2, human PD-L1 (human, UniProt Q9NZQ7 19-238, limits assumed); experiment: ELISA
T2 construct: also called B7H1; CD274
T2 sequence (Q9NZQ7 19-238 limits assumed): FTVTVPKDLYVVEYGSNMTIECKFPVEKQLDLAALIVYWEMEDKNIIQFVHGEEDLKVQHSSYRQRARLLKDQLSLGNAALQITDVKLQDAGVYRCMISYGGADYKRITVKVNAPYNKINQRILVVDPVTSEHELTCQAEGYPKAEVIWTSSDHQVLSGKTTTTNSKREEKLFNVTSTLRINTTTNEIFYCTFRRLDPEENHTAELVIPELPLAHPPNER

human GITR = molecular target: T3, human GITR (human, UniProt Q9Y5U5 26-161, limits assumed); experiment: ELISA
T3 construct: also called TNFRSF18; CD357
T3 sequence: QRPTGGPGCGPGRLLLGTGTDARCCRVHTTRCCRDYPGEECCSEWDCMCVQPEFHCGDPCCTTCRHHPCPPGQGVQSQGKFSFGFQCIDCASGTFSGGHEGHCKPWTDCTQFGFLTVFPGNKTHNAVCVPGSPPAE

[6] = molecular target: T4, recombinant human PD-L1 on the surface of NS0/PD-L1 cells (PD-L1-FLAG-GPI) (human, UniProt Q9NZQ7 19-238); experiment: cell-based or functional assay
T4 sequence (Q9NZQ7 other isoform, or with tags, fused parts or gaps limits assumed): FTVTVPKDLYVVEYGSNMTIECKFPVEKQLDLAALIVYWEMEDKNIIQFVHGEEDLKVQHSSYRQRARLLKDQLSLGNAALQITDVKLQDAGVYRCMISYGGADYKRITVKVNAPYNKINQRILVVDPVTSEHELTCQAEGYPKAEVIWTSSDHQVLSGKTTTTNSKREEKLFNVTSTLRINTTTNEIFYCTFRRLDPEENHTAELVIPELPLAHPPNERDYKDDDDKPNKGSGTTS

[7] = molecular target: human PD-L1 on PD-L1-expressing cells of human PBMC cultures (human, UniProt Q9NZQ7 19-290); experiment: cell-based or functional assay
Sequence of human PD-L1 on PD-L1-expressing cells of human PBMC cultures (Q9NZQ7 19-290 limits assumed): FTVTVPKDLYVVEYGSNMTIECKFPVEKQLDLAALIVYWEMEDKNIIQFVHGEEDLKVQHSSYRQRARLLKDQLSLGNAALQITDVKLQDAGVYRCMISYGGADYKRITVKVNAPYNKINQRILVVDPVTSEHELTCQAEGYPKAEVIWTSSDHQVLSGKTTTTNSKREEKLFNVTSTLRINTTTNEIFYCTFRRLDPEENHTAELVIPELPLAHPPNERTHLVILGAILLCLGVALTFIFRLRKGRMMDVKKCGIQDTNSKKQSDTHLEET

[8] = molecular target: T5, human GITR on the cell surface (JD/GITR cells; GITR-expressing T cells) (human, UniProt Q9Y5U5 26-241); experiment: cell-based or functional assay
T5 sequence: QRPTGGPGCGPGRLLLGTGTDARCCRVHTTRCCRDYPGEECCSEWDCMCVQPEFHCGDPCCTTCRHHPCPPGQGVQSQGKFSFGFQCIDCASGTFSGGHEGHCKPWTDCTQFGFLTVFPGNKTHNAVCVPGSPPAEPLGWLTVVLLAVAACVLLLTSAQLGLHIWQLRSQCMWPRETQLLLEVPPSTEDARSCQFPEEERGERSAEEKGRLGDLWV

[9] = molecular target: T4, recombinant human PD-L1 on the surface …; experiment: flow cytometry; blocking of the binding of FITC-labeled hPD-1-Fc to NS0/PD-L1 cells
From the text: After washing with and suspending in FACS Buffer, cells were subjected to flow cytometry analysis.

Sequence of CD40 on the surface of Ramos cells (P25942 21-277 limits assumed): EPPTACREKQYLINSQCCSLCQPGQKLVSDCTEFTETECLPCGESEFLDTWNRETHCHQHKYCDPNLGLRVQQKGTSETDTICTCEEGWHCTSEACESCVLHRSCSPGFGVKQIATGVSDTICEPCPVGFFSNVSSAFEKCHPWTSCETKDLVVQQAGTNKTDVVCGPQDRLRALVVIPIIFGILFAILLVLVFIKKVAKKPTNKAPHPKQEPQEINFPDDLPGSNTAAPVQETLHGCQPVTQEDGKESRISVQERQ
Sequence of CD33 on the surface of HL-60 cells (P20138 18-364 limits assumed): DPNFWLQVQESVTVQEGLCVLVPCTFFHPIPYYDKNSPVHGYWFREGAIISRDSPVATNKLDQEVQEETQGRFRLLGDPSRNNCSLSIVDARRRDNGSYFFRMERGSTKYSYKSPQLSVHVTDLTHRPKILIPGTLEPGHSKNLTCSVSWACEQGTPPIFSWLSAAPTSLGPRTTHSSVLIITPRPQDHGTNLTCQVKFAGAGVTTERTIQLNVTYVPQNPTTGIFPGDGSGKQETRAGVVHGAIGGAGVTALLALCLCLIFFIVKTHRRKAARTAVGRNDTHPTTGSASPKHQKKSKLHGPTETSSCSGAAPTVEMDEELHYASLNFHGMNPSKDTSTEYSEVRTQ

B1: BS828 (bispecific antibody, human IgG1, kappa, L234A L235A)
heavy: not shown
light: DIQMTQSPSSLSASVGDRVTITCRASESVDNYGISFMNWFQQKPGGAPKLLIYAASNQGSGVPSRFSGSGSGTDFTLTISSLQPDDFATYYCQQSKEVPWTFGQGTKVEIKRTVAAPSVFIFPPSDEQLKSGTASVVCLLNNFYPREAKVQWKVDNALQSGNSQESVTEQDSKDSTYSLSSTLTLSKADYEKHKVYACEVTHQGLSSPVTKSFNRGEC
- percentage of CD95-positive population among Ramos cells, 0.5 µg/ml antibody, in the presence of HL-60 cells [1]: 58.4%
- percentage of CD95-positive population among Ramos cells, 0.5 µg/ml antibody, in the presence of HL-60 cells [2]: 58.4%

B2: BS824 (bispecific antibody, human IgG1, kappa, L234A L235A)
heavy: not shown
light: B1 light
- average relative luciferase unit (RLU) in JD/OX40 cells, 1 µg/ml antibody, with NS0/CD33 cells [3]: 21700 RLU
- average relative luciferase unit (RLU) in JD/OX40 cells, 1 µg/ml antibody, with NS0/CD33 cells [4]: 21700 RLU

B3: HuACS2-IgG1.AA (antibody, V domains shown)
VH: QVQLVQSGAEVKKPGSSVKVSCKASGYTFTSYWLHWVRQAPGQGLEWIGRIDPNSGDTKYNEKFKSRATITVDKSTSTAYMELSSLRSEDTAVYYCARYYYGRSYFDYWGQGTTVTVSS
VL: IVLTQSPATLSLSPGERATLSCSASSSVSYMHWYQQKPGQAPRRWIYDTSKLASGVPARFSGSGSGTDYTLTISSLEPEDFAVYYCQQWSSNPLTFGGGTKVEIKR
- percentage of CD95-positive population among Ramos cells, 0.5 µg/ml antibody, in the presence of HL-60 cells [1]: 0.7%

B4: HuM195-IgG1 (antibody, V domains shown)
VH: QVQLVQSGAEVKKPGSSVKVSCKASGYTFTDYNMHWVRQAPGQGLEWIGYIYPYNGGTGYNQKFKSKATITADESTNTAYMELSSLRSEDTAVYYCARGRPAMDYWGQGTLVTVSS
VL: DIQMTQSPSSLSASVGDRVTITCRASESVDNYGISFMNWFQQKPGGAPKLLIYAASNQGSGVPSRFSGSGSGTDFTLTISSLQPDDFATYYCQQSKEVPWTFGQGTKVEIKR
notes: Humanized IgG1/kappa, wild-type CH2; also called humanized anti-CD33 IgG1/kappa antibody; anti-CD33
- binding result [5]: no binding

B5: BS853 (bispecific antibody, human IgG1, kappa, L234A L235A)
heavy: not shown
light: EIVLTQSPATLSLSPGERATLSCSASSSVSYMHWYQQKPGQAPRPWIYDTSNLASGFPARFSGSGSGTDFTLTISSLEPEDFAVYYCHQRSSYPWTFGGGTKVEIKRTVAAPSVFIFPPSDEQLKSGTASVVCLLNNFYPREAKVQWKVDNALQSGNSQESVTEQDSKDSTYSLSSTLTLSKADYEKHKVYACEVTHQGLSSPVTKSFNRGEC
notes: Transiently expressed in HEK293 cells; Cysteines at position 44 of VH and 100 of VL of the anti-GITR scFv; also called modified bispecific antibody encoded in pBS853; BS809 with disulfide-linked anti-GITR scFv
- binding result (human PD-L1): binds
- binding result (human GITR): binds

B6: BS813 (bispecific antibody, human IgG1, kappa, L234A L235A)
heavy: not shown
light: B5 light
- average IL-2 concentration in human PBMC-derived T cells (PHA-L-treated, OKT3-coated plate), 1 µg/ml antibody [3]: 2200
- average IL-2 concentration, SEB-treated human PBMC, 1 µg/ml antibody [3]: 17.7 ng/mL
- average relative luciferase unit (RLU) in JD/OX40 cells, 1 µg/ml antibody, with NS0/PD-L1 cells [3]: 23700 RLU
- average relative luciferase unit (RLU) in JD/OX40 cells, 1 µg/ml antibody, with NS0/PD-L1 cells [6]: 23700 RLU
- average IL-2 concentration in human PBMC-derived T cells (PHA-L-treated, OKT3-coated plate), 1 µg/ml antibody [7]: 2200
- average IL-2 concentration, SEB-treated human PBMC, 1 µg/ml antibody [7]: 17.7 ng/mL

B7: BS809 (bispecific antibody, human IgG1, kappa, L234A L235A)
heavy: not shown
light: B5 light
- average IL-2 concentration in PBMC-derived T cells of donor 4143, 1 µg/ml antibody [8]: 4200 pg/mL
- average relative luciferase unit (RLU) in the culture supernatants of JD/GITR cells, 1 µg/ml antibody, with NS0/PD-L1 cells [8]: 1.04e+06 RLU
- average relative luciferase unit (RLU) in the culture supernatants of JD/GITR cells, 1 µg/ml antibody, with NS0/PD-L1 cells [6]: 1.04e+06 RLU
- average IL-2 concentration in PBMC-derived T cells of donor 4143, 1 µg/ml antibody [7]: 4200 pg/mL

B8: HuPRO1-IgG1.AA (antibody, V domains shown)
VH: QVQLVQSGAEVKKPGSSVKVSCKASGFTFSSSYISWVRQAPGQGLEWIAWIYAGTGGTSYNQKFTGRATITVDESTSTAYMELSSLRSEDTAVYYCARHEGVYWYFDVWGQGTTVTVSS
VL: EIVLTQSPATLSLSPGERATLSCSASSSVSYMHWYQQKPGQAPRPWIYDTSNLASGFPARFSGSGSGTDFTLTISSLEPEDFAVYYCHQRSSYPWTFGGGTKVEIKR
notes: Humanized IgG1/kappa with L234A/L235A; Heavy chain built from VH and the constant exons of pHuM195-IgG1; also called humanized PRO1; anti-PD-L1
- average IL-2 concentration in PBMC-derived T cells of donor 4143, 1 µg/ml antibody [7]: 1450 pg/mL
- IC50 [9]: 0.106 µg/mL

B9: HuOHX14DS-IgG1.AA (antibody, V domains shown)
VH: QVQLVQSGAEVKKPGSSVKVSCKASGYTFTSYIMHWVRQAPGQGLEWIGYINPYNSGTKYNEKFKGRVTITSDKSTSTAYMELSSLRSEDTAVYYCAHYYGSTFTMDYWGQGTTVTVSS
VL: DIQMTQSPSSLSASVGDRVTITCRASQDIRTYLNWYQQKPGKVPKLLIYYTSRLHSGVPSRFSGSGSGTDYTLTISSLQPEDVATYYCQQGNTLPWTFGGGTKVEIKR
- average relative luciferase unit (RLU) in JD/OX40 cells, 1 µg/ml antibody, with NS0/CD33 cells [3]: 8700 RLU
- average relative luciferase unit (RLU) in JD/OX40 cells, 1 µg/ml antibody, with NS0/PD-L1 cells [3]: 5920 RLU

B10: BS841 (bispecific antibody, human IgG1, kappa, L234A L235A)
heavy: not shown
light: DIQLTQSPSFLSASVGDRVTITCSASSSVNYMHWFQQKPGKAPKLWIYSTSNLASGVPSRFSGSGSGTEFTLTISSLQPEDFATYYCQQRSSYPLTFGGGTKVEIKRTVAAPSVFIFPPSDEQLKSGTASVVCLLNNFYPREAKVQWKVDNALQSGNSQESVTEQDSKDSTYSLSSTLTLSKADYEKHKVYACEVTHQGLSSPVTKSFNRGEC
- average IL-2 concentration in human PBMC-derived T cells (PHA-L-treated, OKT3-coated plate), 1 µg/ml antibody [3]: 1700
- average IL-2 concentration, SEB-treated human PBMC, 1 µg/ml antibody [3]: 16.5 ng/mL
- average IL-2 concentration in human PBMC-derived T cells (PHA-L-treated, OKT3-coated plate), 1 µg/ml antibody [7]: 1700
- average IL-2 concentration, SEB-treated human PBMC, 1 µg/ml antibody [7]: 16.5 ng/mL

B11: HuPRO5-IgG1.AA (antibody, V domains shown)
VH: QVQLQESGPGLVKPSQTLSLTCTVSGDSISSGYWNWIRQPPGKGLEYMGYISYTGSTYSNPSLKSRVTISRDTSKNQFSLKLSSVTAADTAVYYCARSQNWERAWFAYWGQGTLVTVSS
VL: DIQMTQSPSSLSASVGDRVTITCSASSSVSYMHWYQQKPGKAPKLWIYDTSKLASGVPSRFSGSGSGTDFTLTISSLQPEDFATYYCFQGSGYPFTFGGGTKVEIKR
notes: also called humanized PRO5; Anti-PD-L1 #5
- IC50 [9]: 0.087 µg/mL

B12: HuPRO2-IgG1.AA (antibody, V domains shown)
VH: VQLVQSGAEVKKPGSSVKVSCKASGYTFTSYGINWVRQAPGQGLEWIGYIYPGSGGPVYNQKFKGRVTLTADKSTSTAYMELSSLRSEDTAVYYCARENYRYWYFDVWGQGTTVTVSS
VL: DIQLTQSPSFLSASVGDRVTITCSASSSVNYMHWFQQKPGKAPKLWIYSTSNLASGVPSRFSGSGSGTEFTLTISSLQPEDFATYYCQQRSSYPLTFGGGTKVEIKR
notes: Humanized IgG1/kappa with L234A/L235A; also called humanized PRO2; Anti-PD-L1 #2
- IC50 [9]: 0.055 µg/mL

From patent US20220251214A1 (JN BIOSCIENCES, published 2022)
